# Patent publication US20060258562
# B1: PKCδ (protein kinase C delta) (protein)
# chain: MAPFLRISFNSYELGSLQVEDEASQPFCAVKMKEALSTERGKTLVQKKPTMYPEWKTTFDAHIYEGRVIQIVLMRAAEDPVSEVTVGVSVLAERCKKNNGKAEFWLDLQPQAKVLMCVQYFLEDGDCKQSMRSEEEAKFPTMNRRGAIKQAKIHYIKNHEFIATFFGQPTFCSVCKEFVWGLNKQGYKCRQCNAAIHKKCIDKIIGRCTGTATNSRDTIFQKERFNIDMPHRFKVYNYMSPTFCDHCGSLLWGLVKQGLKCEDCGMNVHHKCREKVANLCGINQKLLAEALNQVTQRSSRKLDTTESVGIYQGFEKKPEVSGSDILDNNGTYGKIWEGSTRCTLENFTFQKVLGKGSFGKVLLAELKGKDKYFAIKCLKKDVVLIDDDVECTMVEKRVLALAWESPFLTHLICTFQTKDHLFFVMEFLNGGDLMFHIQDKGRFELYRATFYAAEIICGLQFLHSKGIIYRDLKLDNVMLDRDGHIKIADFGMCKENIFGEGRASTFCGTPDYIAPEILQGLKYSFSVDWWSFGVLLYEMLIGQSPFHGDDEDELFESIRVDTPHYPRWITKESKDIMEKLFERDPDKRLGVTGNIRIHPFFKTINWSLLEKRKVEPPFKPKVKSPSDYSNFDPEFLNEKPQLSFSDKNLIDSMDQEAFHGFSFVNPKFEQFLDI
# Target: STAT3 (Signal Transducer and Activator of Transcription 3), P42227
# Sequence (P42227 2-770): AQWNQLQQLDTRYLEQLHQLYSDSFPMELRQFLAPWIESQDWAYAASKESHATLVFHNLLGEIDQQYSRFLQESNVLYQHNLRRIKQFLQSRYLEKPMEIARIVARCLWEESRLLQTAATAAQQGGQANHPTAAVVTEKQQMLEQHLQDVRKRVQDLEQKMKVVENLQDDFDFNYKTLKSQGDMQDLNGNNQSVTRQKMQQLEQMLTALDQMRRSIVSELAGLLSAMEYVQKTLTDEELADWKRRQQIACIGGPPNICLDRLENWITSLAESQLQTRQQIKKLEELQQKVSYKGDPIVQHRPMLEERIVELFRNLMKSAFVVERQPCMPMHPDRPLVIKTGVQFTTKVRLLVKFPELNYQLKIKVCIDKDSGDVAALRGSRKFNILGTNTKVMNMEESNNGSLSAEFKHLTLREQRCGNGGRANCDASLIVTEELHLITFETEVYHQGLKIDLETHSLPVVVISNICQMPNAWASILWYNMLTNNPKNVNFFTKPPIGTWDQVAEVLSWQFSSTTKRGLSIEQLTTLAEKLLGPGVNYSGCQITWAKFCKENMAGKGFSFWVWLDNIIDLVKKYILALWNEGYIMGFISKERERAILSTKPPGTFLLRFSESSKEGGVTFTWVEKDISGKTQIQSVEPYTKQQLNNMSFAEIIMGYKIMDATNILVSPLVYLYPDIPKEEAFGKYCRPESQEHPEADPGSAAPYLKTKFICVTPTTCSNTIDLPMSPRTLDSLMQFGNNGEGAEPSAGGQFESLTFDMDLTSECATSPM
protein,measurement,value
B1,"immunofluorescence with antiphospho-Tyr-705-STAT3 antibody after insulin stimulation, with or without rottlerin","Following insulin stimulation, PKCδ is activated and in turn phosphorylates and activates STAT3"
